Results published in US20160096894 (published 2016).

Assays:
[1] = target: T1, IGF-IR extracellular domain (human, UniProt P08069); test: SPR, protocol 1
[2] = target: T1, IGF-IR extracellular domain; test: SPR, protocol 2
IGF-IR = IGF-IR (human, UniProt P08069); test: competition, IGF-I blocking
[3] = target: T1, IGF-IR extracellular domain; test: SPR

Binder	Kd [1]	Kd [2]	IC50 (IGF-IR)	Kd [3]
2.13.2 (antibody, V domains shown) VH: VQLLESGGGLVQPGGSLRLSCTASGFTFSSYAMNWVRQAPGKGLEWVSAISGSGGTTFYADSVKGRFTISRDNSRTTLYLQMNSLRAEDTAVYYCAKDLGWSDSYYYYYGMDVWGQGTTVTVSS VL: DIQMTQFPSSLSASVGDRVTITCRASQGIRNDLGWYQQKPGKAPKRLIYAASRLHRGVPSRFSGSGSGTEFTLTISSLQPEDFATYYCLQHNSYPCSFGQGTKLEIK	3.5 nM	1.53 nM	0.18 µg/mL	
2.12.1 (antibody, V domains shown) VH: GRLGQAWRSLRLSCAASGFTFSDYYMSWIRQAPGKGLEWVSYISSSGSTRDYADSVKGRFTISRDNAKNSLYLQMNSLRAEDTAVYYCVRDGVETTFYYYYYGMDVWGQGTTVTVSS VL: ASVGDRVTFTCRASQDIRRDLGWYQQKPGKAPKRLIYAASRLQSGVPSRFSGSGSGTEFTLTISSLQPEDFATYYCLQHNNYPRTFGQGTEVEIIR	7.37 nM		0.45 µg/mL	
2.14.3 (antibody, V domains shown) VH: GPGLVKPSETLSLTCTVSGGSISNYYWSWIRQPAGKGLEWIGRIYTSGSPNYNPSLKSRVTMSVDTSKNQFSLKLNSVTAADTAVYYCAVTIFGVVIIFDYWGQGTLVTVSS VL: SSLSASVGDRVTFTCRASQDIRRDLGWYQQKPGKAPKRLIYAASRLQSGVPSRFSGSGSGTEFTLTISSLQPEDFATYYCLQHNNYPRTFGQGTEVEIIR				0.641 nM

The next lines start with the values.

Kd [1]	Kd [2]	IC50 (IGF-IR)	Kd [3]	Binder
0.684 nM	0.427 nM	0.1 µg/mL		4.9.2 (antibody, V domains shown) VH: not shown VL: DIQMTQSPSSLSASVGDRVTITCRASQGIRSDLGWFQQKPGKAPKRLIYAASKLHRGVPSRFSGSGSGTEFTLTISRLQPEDFATYYCLQHNSYPLTFGGGTKVEIK
			0.565 nM	6.1.1 (antibody, V domains shown) VH: EVQLLESGGGLVQPGGSLRLSCAASGFTFSSYAMSWVRQAPGKGLEWVSGITGSGGSTYYADSVKGRFTISRDNSKNTLYLQMNSLRAEDTAVYYCAKDPGTTVIMSWFDPWGQGTLVTVSS VL: RATLSCRASQSVRGRYLAWYQQKPGQAPRLLIYGASSRATGIPDRFSGSGSGTDFTLTISRLEPEDFAVFYCQQYGSSPRTFGQGTKVEIK
			13 nM	4.17.3 (antibody, V domains shown) VH: PGLVKPSETLSLTCTVSGGSISSYYWSWIRQPPGKGLEWIGYIYYSGSTNYNPSLKSRVTISVDTSKNQFSLKLSSVTAADTAVYYCARTYSSSFYYYGMDVWGQGTTVTVSS VL: GDRVTITCRASQSISTFLNWYQQKPGKAPKLLIHVASSLQGGVPSRFSGSGSGTDFTLTISSLQPEDFATYYCQQSYNAPLTFGGGTKVEIK
